Results from patent US20160289290A1, “N-GLYCOSYLATED INSULIN ANALOGUES” (Merck Sharp & Dohme Corp., priority 2011, published 2016).
“Also recorded” adds a separate entry of the source. Like-named read-outs stand apart in the source and are kept apart here.

What was measured:
[1] = Glucose levels during mouse ITT; assay type: in vivo
[2] = Glucose responsiveness in C57BL/6 mice with or without α-methylmannose; assay type: in vivo
Procedure: FIG. 40A, FIG. 40B, FIG. 40C, and FIG. 40D show in vivo activity of insulin B:P28N des(B30) analogues with an N-glycan attached to position B28. C57BL/6 mice at 12 weeks of age were fasted two hours before dosed with insulin des(B30) analogues with GS2.1 or GS5.0 N-glycan compositions by s.c injection. The effect on blood glucose was determined as a function of time in the absence and presence of α-methylmannose. FIG. 40A: vehicle; FIG. 40B: GS5.0; FIG. 40C: GS2.1; and FIG. 40D: summarizes the results.
To study the glucose responsiveness of the GS2.1 and GS5.0 insulin analogues, C57BL/6 mice at 12 weeks of age were fasted two hours before dosed with GS2.1 or GS5.0 by s.c injection. At the same time, animals received i.p. administration of α-methylmannose solution (21.5% w/v in saline, 10 ml/kg) or vehicle. […] Blood glucose was measured using a glucometer (OneTouch Ultra LifeScan; Milpitas, Calif.) at time 0 and then 30, 60, 90, and 120 minutes post injection. Glucose Area-Over-the-Curve (AOC) was calculated using values normalized to glucose of time 0 (as 100%).

[3] = mouse, in vivo
[4] = biological target: T1, insulin receptor (IR) (Homo sapiens, UniProt P06213); assay: In vitro insulin receptor phosphorylation / IR signaling assay (FIG. 5C); assay type: cell-based
Source text: (§1) FIG. 5A, FIG. 5B, FIG. 5C, and FIG. 5D show[s] in vitro activities of the two N-glycosylated insulin analogues at the insulin and insulin-like growth factor (IGF-1) receptors.
(§2) N-glycans provide a means for modulating IR binding. […] The sialylated N-glycans extended the PK of the insulin relative to insulin analogues having non-sialylated N-glycans. However, the extended PK is balanced by the reduced binding at the IR. […] In light of the examples shown herein, modulating insulin-IR interactions can be accomplished by providing glycosylated insulin analogues in which one or more N-glycans have been added to the molecule by N-linked glycosylation in vivo or by attaching one or more of the N-glycans to the insulin molecule in vitro or a combination of both.

[5] = biological target: IGF-1R (Homo sapiens, UniProt P08069); assay: IGF-1 receptor binding (FIG. 5B)
Source text: as §1
Published studies have shown insulin to have a reduced interaction with IGF-1R when it contains a net negative charge at the end of the B-chain (Slieker et al., op. cit.). Therefore, we hypothesized that an N-glycosylated insulin analogue having sialic acid terminated-N-glycans would have reduced IGF-1R binding.

[6] = biological target: T1, insulin receptor (IR); assay: In vitro insulin receptor binding (FIG. 5A)
Source text: as §1, §2

[7] = Circulating insulin analogue levels during insulin tolerance test (ITT); conditions: FIG. 3A/3B

In vitro IR signaling activity [4]	In vitro IR binding [6]	Substance	In vivo glucose-lowering activity ([1]; FIG. 4)	Percent glucose AOC in the presence and absence of α-methylmannose ([2]; AOC normalized to glucose at time 0)	Blood glucose lowering, dosed alone ([2]; s.c., i.p. vehicle, 0-120 min, GS5.0 at 18 nmol/kg)	Blood glucose lowering in the presence of α-methylmannose ([2]; s.c., i.p. α-methylmannose 21.5% w/v, 10 ml/kg)	AUC of circulating insulin analogue levels [3]	IGF-1R binding affinity [5]	AUC of circulating insulin analogue levels [7]	AUC of circulating insulin analogue levels ([7]; listed as sialic acid-terminated glycoform)	In vivo glucose-lowering activity ([1]; FIG. 4, listed as sialic acid-terminated glycoform)
		GS5.0: insulin heterodimer, native A-chain, des(B30) B:P28N B-chain, Asn28 attached to a G2 N-glycan (SEQ ID NO:295)	retained activity at the insulin receptor	no change was detected	lowered glucose during 120 min study period	no detectable additional effect on glucose lowering	statistically significant improvements in AUC relative to mature NOVOLIN				
reduced activity	reduced binding activity to IR	GS6.0: insulin heterodimer, native A-chain, des(B30) B:P28N B-chain, Asn28 attached to an A2 N-glycan (SEQ ID NO:294)						interacts with IGF-1R with even less affinity than NOVOLIN	statistically significant improvements in AUC relative to mature NOVOLIN	even greater AUC measurements relative to the galactose-terminated glycoform	retained activity at the insulin receptor; also recorded: longest glucose-lowering activity of all des(B30) samples
